Measured values published in patent publication US5882644A, “Monoclonal antibodies specific for the platelet derived growth factor β receptor and methods of use thereof” (Protein Design Labs, Inc., priority 1996, dated 1999).
“Also recorded” adds a separate entry of the source.

Columns and labels:
[1] = tested on: PDGF-R β; experiment: Competitive binding with 125I-PDGF BB on transfectant cells expressing PDGF-R β; set-up: species or system human; details: 4° C.
Procedure: To determine the ability of muM4TS.11 and muM4TS.22 to block binding of PDGF BB to PDGF-R β, the following competitive binding experiments were performed. Transfectant cells expressing PDGF-R β were harvested, washed twice with cold DMEM, and resuspended at 10^6 cells/ml in DMEM. The assay was carried out in triplicate by incubating 100 μl of the cell suspension with either: 1) no antibody (to determine total binding); 2) varying concentrations of antibody; or 3) 100 ng cold PDGF BB (to saturate specific binding sites and determine non-specific binding) for 15 minutes at 4° C. Each sample received 1.0 ng ^125 I-labeled PDGF BB, and was incubated for an additional 60 min at 4° C. Unbound ^125 I-labeled PDGF BB was separated from that bound to the cell by layering the sample over a mixture of 80% dibutylphthalate, 20% olive oil in a microfuge tube, and microfuging briefly to pellet the cells through the oil mixture. The tubes were placed in dry ice to freeze the contents, the tip of the tube containing the cell pellet was cut off into a vial, and radioactivity was determined in a gamma counter.
To assess the ability of HuM4TS.22 to block the binding of PDGF BB to its receptor, competitive binding experiments of HuM4TS.22 with ^125 I-PDGF BB were performed according to the method described in Example 3.
To assess the ability of muM4TS.11 and HuM4TS.11 to block the binding of PDGF BB to the PDGF β receptor, competitive binding experiments of these antibodies with ^125 I-PDGF BB were performed according to the method described in Example 3.

[2] = tested on: CHO transfectant cell line expressing PDGF-R β (CHO C4); experiment: Inhibition of PDGF BB-induced proliferation (3H-thymidine) of CHO C4 cells; assay type: cell-based, Chinese hamster; details: for inhibition of PDGF BB-induced proliferation: 50 ng/ml PDGF BB, sufficient antibody concentration
Procedure: To determine the ability of muM4TS.11 and muM4TS.22 to block PDGF-mediated proliferation, a CHO transfectant cell line expressing PDGF-R β (CHO C4) was generated, as described above. Proliferation of this line, as measured by incorporation of ^3 H-thymidine by DNA synthesis, is stimulated several-fold by PDGF BB. The CHO PDGF-R β transfectants were plated in a 96-well tissue culture plate at about 50,000 cells/well in Ham's F-12+10% FCS and incubated for 1-2 days. The medium was removed, and the cells were washed once with serum-free medium (Ham's F-12+1 mg/ml BSA) and incubated in this media for 1-2 days to put them in a quiescent state. The appropriate amount of antibody in serum-free medium was added, and after 1-3 hours, 50 ng/ml PDGF BB was added. After overnight incubation, 1 μCi ^3 H-thymidine was added, and after a final 4 hour incubation, the cells were harvested using a PHD cell harvester (Cambridge Technology) and analyzed with a scintillation counter.

[3] = tested on: PDGF-R β; experiment: Flow cytometry (FACS) staining of Sp2/0 transfectant cells expressing PDGF-R β; assay type: binding, human; details: 50 ng antibody; vs untransfected Sp2/0 cells
Procedure: The cells were washed with cold PBS, incubated for an additional 30 minutes with FITC-labeled goat-anti-human Ig (Tago Immunologicals) and analyzed by flow cytometry (FACS).
The cells were washed with cold PBS, incubated for an additional 30 minutes with FITC-labeled goat-anti-human Ig (Tago Immunologicals) and analyzed by flow cytometry (FACS). […] Neither an irrelevant control antibody nor the FITC-labeled goat antibody alone stained either cell type.

[4] = tested on: PDGF-R β; experiment: Competition with 125I-labeled murine antibody tracer on Sp2/0 PDGF-R β transfectant cells; assay type: binding, human; details: Sp2/0 PDGF-R β transfectants; for binding affinity Ka: calculated from competitive binding data
Procedure: To assess the ability of HuM4TS.22 to compete with muM4TS.22 for receptor binding, increasing concentrations of the two antibodies were respectively incubated on ice for one hour with Sp2/0 PDGF-R β transfectant cells and a fixed amount of tracer ^125 I-labeled muAb. The sample tubes were processed as in the blocking experiment just described.
To assess the ability of HuM4TS.11 to compete with the muAb for receptor binding, increasing concentrations of the two antibodies were respectively incubated on ice for one hour with Sp2/0 PDGF-R β transfectant cells and a fixed amount of tracer ^125 I-labeled M4TS.11. The sample tubes were processed as in the blocking experiment described. […] The binding affinities calculated from the data were: Ka =5×10^8 M^-1 for the muAb and 3×10^7 M^-1 for the HuAb.

[5] = tested on: PDGF-R β deletion fusion proteins; experiment: ELISA epitope mapping with PDGF-R β deletion fusion proteins; assay type: binding, human; details: for binding to protein D5 (fifth domain only): separate experiment
Text: To localize the binding sites of the M4TS antibodies on the PDGF-R, a series of PDGF-R β deletion mutants, each consisting of one or more adjacent domains of the extracellular portion of the receptor, was constructed by standard methods including PCR. The deletion constructs were each cloned into an expression plasmid (FIG. 13A) where they were fused to the constant region of the human lambda-1 immunoglobulin light chain, to facilitate detection in ELISA. The constructs were as follows (see FIG. 13B):
These PDGF-R β deletion fusion proteins were transiently expressed, by transfecting 10 μg of the respective expression plasmids into approximately 10^7 S194 mouse myeloma cells (ATCC TIB 19) using the DEAE-dextran method in accordance with the method described by Queen et al. (1984) Mol. Cell. Biol. 4:1042. After the transfected cells had died (4-5 days) and been removed by centrifugation, the culture supernatants containing the PDGF-R β deletion proteins were used in ELISA assays, 100 μl/well. First, the relative levels of the various PDGF-R β deletion proteins were measured in an ELISA where the plate was coated with goat anti-human lambda antibody (Tago) and the proteins detected with HRP-conjugated goat anti-human lambda antibody. […] To determine the ability of the antibodies to bind to each deletion protein, an ELISA was performed in which goat anti-human lambda antibody was used to coat the plate, followed by the cell supernatant and then 0.1 μg of the appropriate antibody, and then bound antibody detected with HRP-conjugated goat-anti-mouse Ig or goat-anti-human Ig antibody as appropriate (Tago). As a positive control, purified soluble PDGF-R β (Example 1) was coated directly on certain wells of the plate (denoted D1-5 in FIG. 14).

[6] = target: rat PDGF-R β (rat, UniProt Q05030); experiment: cell-based or functional assay
[7] = target: T1, PDGF-R β expressed on transfectant cells (CHO PDGF-R β transfectants, CHO C4 line); Sp2/0 PDGF-R β … (human, UniProt P09619); experiment: competition with 125I-labeled M4TS.11 on Sp2/0 PDGF-R β transfectant cells
Procedure: (§1) Figure 11: FIG. 11 is a graph depicting competitive binding of muM4TS.11 (closed squares) and HuM4TS.11 (open squares) and HuM4TS.11(gamma 1) (open diamonds). Increasing concentrations of cold competitor antibodies were incubated with the Sp2/0 transfectants expressing PDGF-R β in the presence of radiolabeled tracer muM4TS.11, and the ratio of bound/free radioactivity determined. The results shown are mean values of triplicate samples.
(§2) To assess the ability of HuM4TS.11 to compete with the muAb for receptor binding, increasing concentrations of the two antibodies were respectively incubated on ice for one hour with Sp2/0 PDGF-R β transfectant cells and a fixed amount of tracer ^125I-labeled M4TS.11. The sample tubes were processed as in the blocking experiment described. HuM4TS.11 competed less well than muM4TS.11 (FIG. 11).

[8] = target: T1, PDGF-R β expressed on transfectant …; experiment: competition with 125I-labeled muM4TS.11 on Sp2/0 PDGF-R β transfectant cells
Procedure: as §1, §2
(§3) Loss of binding affinity due to the gamma4 isotype has been observed in another antibody (Horgan et al. (1993) J. Immunol. 150:5400), and may be due to structural constraints imposed on the particular antibody by the gamma4 hinge region. See, Horgan et al. (1993).

[9] = target: T1, PDGF-R β expressed on transfectant …; experiment: competition with 125I-labeled muM4TS.11 on Sp2/0 PDGF-R β transfectant cells (FIG. 11)
Procedure: as §1, §2, §3

Molecule | blocking of 125I-PDGF BB binding to PDGF-R β [1] | inhibition of PDGF-mediated proliferation compared with another antibody [2] | inhibition of PDGF BB-induced proliferation [2] | FACS staining of Sp2/0 PDGF-R β transfectant cells [3] | competition with labeled murine antibody for receptor binding / binding affinity, in words [4] | binding affinity Ka [4] [M⁻¹] | binding to deletion proteins containing only first through second domains ([5]; 0.1 μg antibody) | binding to protein D1-3 ([5]; 0.1 μg antibody) | binding to protein D3 (third domain only) ([5]; 0.1 μg antibody) | binding to protein D5 (fifth domain only) [5] | IC50 of inhibition of PDGF BB-stimulated proliferation of rat aortic smooth muscle cells [6] [µg/mL] | Ka [7] [M⁻¹] | Ka [8] [M⁻¹] | fold difference in competition against muM4TS.11 [9] [fold] | binding to deletion proteins containing only first through third domains ([5]; 0.1 μg antibody) | binding to protein D1-4 ([5]; 0.1 μg antibody)
HuM4TS.22: humanized muM4TS.22, human IC4 framework, gamma4 constant region; SEQ ID NOS:6 and 8 (antibody, V domains shown) VL: MRVLAELLGLLLFCFLGVRCDIQMTQSPSSLSASVGDRVTITCHASQNINVWLSWYQQKPGKAPKLLIYKASNLHTGVPSRFSGSGSGTGFTLTISSLQPEDIATYYCQQGQSFPFTFGGGTKVEIK VH: MAVLALLLCLVTFPSCALSQVQLQESGPGLVKPSETLSLTCTVSGFSLTNYAINWVRQPPGKGLEWLGIIWTGGGTSYNSALKSRLTISKDTSKNQVSLKLSSVTAADTAVYYCARTGTRGYFFDYWGQGTLVTVSS | reduced the binding of radiolabelled PDGF BB ligand to the PDGF-R β transfectant cells to the non-specific level; also recorded: did have the ability to block binding of PDGF BB to PDGF-R β | about equally as well as muM4TS.22 | almost completely inhibited the stimulation of proliferation by PDGF BB | stained the transfectant cells but did not stain untransfected Sp2/0 cells at all | competed with equal efficiencies | 4e+08 | do not bind | do bind to protein D1-3 | bind to the protein D3 | none of muM4TS.11 and HuM4TS.11, muM4TS.22 and HuM4TS.22 bound to it |  |  |  |  |  | 
muM4TS.11 (antibody, V domains shown) VH: QVQLQQSGAEVAKPGASVKMSCKASGYTFTNCWMHWVKQRPGQGLEWIGYINPTTGYSEYNQNFKDKATLTADKSSNTAYIQLSSLTSEDSAVYYCTSNYGHYDWFANWGQGTLVT VL: DIVLTQSPPSLAVSLGQRATISCRASESVDSYGNSFMHWYQQKPGQPPKLLIYRASNLESGIPARFSGGGSRTDFTLTINPVEADDVATYYCQQSNEDPPTFGGGTKLEIK |  |  |  |  |  |  |  |  |  |  | ~0.5 | 5e+08 |  |  |  | 
HuM4TS.11(gamma1) (antibody, V domains shown) VH: QVQLVQSGAEVKKPGASVKVSCKASGYTFTNCWMHWVRQAPGQGLEWIGYINPTTGYSEYNQNFKDKATITADKSTSTAYMELSSLRSEDTAVYYCTSNYGHYDWFGNWGQGTLVT VL: DIQMTQSPSSLSASVGDRVTITCRASESVDSYGNSFMHWYQQKPGKAPKLLIYRASNLESGIPSRFSGSGSRTDFTLTISSLQPEDVATYYCQQSNEDPPTFGQGTKVEIK |  |  |  |  |  |  |  |  |  |  |  |  | 1.6e+08 | ~3 |  | 
HuM4TS.11: humanized muM4TS.11, human III-2R framework, gamma4 constant region; SEQ ID NOS:14 and 16 (antibody, V domains shown) VL: METDTLLLWVLLLWVPGSTGDIQMTQSPSSLSASVGDRVTITCRASESVDSYGNSFMHWYQQKPGKAPKLLIYRASNLESGIPSRFSGSGSRTDFTLTISSLQPEDVATYYCQQSNEDPPTFGQGTKVEIK VH: MGWSWIFLFLLSGTAGVHSQVQLVQSGAEVKKPGASVKVSCKASGYTFTNCWMHWVRQAPGQGLEWIGYINPTTGYSEYNQNFKDKATITADKSTSTAYMELSSLRSEDTAVYYCTSNYGHYDWFGNWGQGTLVT | neither muM4TS.11 nor HuM4TS.11 were able to inhibit binding of PDGF BB to its receptor | nearly as well as muM4TS.11; also recorded: about equally well | almost completely inhibited the stimulation of proliferation by PDGF BB | stained the transfectant cells but did not stain untransfected Sp2/0 cells at all | competed less well than muM4TS.11 | 3e+07 |  |  |  | none of muM4TS.11 and HuM4TS.11, muM4TS.22 and HuM4TS.22 bound to it |  |  |  |  | do not bind | do bind to protein D1-4
